We go through five molecules from US20200392252A1 (ALLOGENE THERAPEUTICS, published 2020).

The Kd is the equilibrium constant for the complex coming apart. Low values mean tighter binding, high ones weaker binding. A word on the koff: it is a measure of how fast the partners let go of each other. By kon is commonly meant the second-order rate constant of association. The low end stands for slower complex formation, the high end for faster complex formation.

The test concerns the target T1, FokI catalytic domain protein including a C-terminal 6xHis tag and GSGS linker (Flavobacterium okeanokoites, UniProt P14870 426-579).
T1 construct: also called Fok-1; Fok1
T1 sequence: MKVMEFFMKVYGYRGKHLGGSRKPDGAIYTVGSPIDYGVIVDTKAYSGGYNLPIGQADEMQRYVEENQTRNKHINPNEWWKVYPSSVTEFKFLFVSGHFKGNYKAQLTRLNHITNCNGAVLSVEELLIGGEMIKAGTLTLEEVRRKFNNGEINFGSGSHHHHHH
Put plainly: Biacore SPR, antibody as ligand, FokI as analyte.

B1: 2299.5D4.C8 (antibody, V domains shown)
VH: QIQLVQSGPELKKPGETVKISCKASGYTFTDYSIHWVKQAPGEGLKWMAWINTETGAPTFADDFKGRLALSLETSANTAYLQINNLKHEDTATYFCAKEGGFYFYAMDYWGQGTSVTVSS
VL: DIVMSQSPSSLAVSAGEKVTMSCKSSQSLLSSRTRKNYLAWYQQKPGQAPKLLISWASTRESGVPDRFTGSGSGTEFTLTISSVQAEDLAVYYCKQSYNLRTFGGGTKLEIK
As for B1, the Kd was less than 7.63 nM, the koff is less than 8.55e-05 s⁻¹, the kon amounted to 11200 M⁻¹ s⁻¹ and the “t1/2” value was more than 2.25 h.

B2: 2299.6B3.B8.B6 (antibody, V domains shown)
VH: QIQLVQSGPELKKPGETVKISCKASGYAFTDYSIHWMKQAPGEGLQWMGWINTETAKPAFGDDFKGRFAFSLETSANTAHLHINNLRTEDTATYFCAKEGGFYFYAMDYWGQGTSVTVSS
VL: DIVMSQSPSSLAVSAGEKVTMNCKSSQSLLSSRTRKNYLAWYQQKPGQSPKLLIYWASTRDSGVPDRFTGSGSGTDFTLTISSVQAEDLAVYYCKQSYNFRTFGGGTKLEIK
For the molecule B2, the Kd was less than 8.66 nM, the koff was less than 8.55e-05 s⁻¹, the kon is 9870 M⁻¹ s⁻¹ and the “t1/2” value was more than 2.25 h.

B3: 2299.7F11.B4 (antibody, V domains shown)
VH: QIQLVQSGPELKKPGETVKISCKASGYTFTDYSIHWVKQAPGKGLKWMAWINTETGDPTYEDDFKGRFAFSLETSASTAYLQINNLKNEDTATYFCSKEGGFYFYAMDYWGQGTSVTVSS
VL: DIVMSQSPSSLAVSAGEKVTMSCKSSQSLLSSRTRKNYLAWYQQKPGQSPKLLIKWASTRESGVPDRFTGSGSGTDFTLTISSVQAEDLAVYYCKQSYNLRTFGGGTKLEIK
With B3, the Kd was less than 1.13 nM, the koff was less than 8.55e-05 s⁻¹, the kon came to 75700 M⁻¹ s⁻¹ and the “t1/2” value was more than 2.25 h.

B4: 2299.2G3.C6 (antibody, V domains shown)
VH: QIQLVQSGPELKKPGETVKISCKASGYTFTDYSIHWVKQAPGEGLKWMAWINTETGAPTFADDFKGRLALSLETSANTAYLQINNLKHEDTATYFCAKEGGFYFYAMDYWGQGTSVTVSS
VL: DIVMSQSPSSRAVSAGEKVTMSCKSSQSLLSSRTRKNYLAWYQQKPGQAPKMLISWASTREFGVPDRFTGSGFGTDFTLTISSVQGEDLAVYYCKQSYNFRTFGGGTKLEIK
Regarding B4, the Kd is less than 4.83 nM, the koff was less than 8.55e-05 s⁻¹, the kon amounted to 17700 M⁻¹ s⁻¹ and the “t1/2” value was more than 2.25 h.

B5: 2299.6G5.C7 (antibody, V domains shown)
VH: QIQLVQSGPELKKPGETVKISCKASGYTFTDYSIHWVKQAPGKGLKWMGWINTETGAPTFADDFKGRFAFSLETSASTAFLQINNLKNEDTATYFCAKEGGFYFYAMDYWGQGTSLTVSS
VL: DIVMSQSPSSLAVSTGEKVTMSCKSSQSLLSSRTRKNYLAWYQQKPGQAPKLLISWASTRESGVPDRFTGSGSGTDFTLTISSVQAEDLAVYYCKQSFNLRTFGGGTKLEIK
For B5, the Kd was less than 16.2 nM, the koff was less than 8.55e-05 s⁻¹, the kon was 5270 M⁻¹ s⁻¹ and the “t1/2” value is more than 2.25 h.
